Molecular target: IL-4R (interleukin-4 receptor) (UniProt P24394)
Test: cell-based or functional assay

UniProt P24394, sequence (P24394 26-825 limits assumed): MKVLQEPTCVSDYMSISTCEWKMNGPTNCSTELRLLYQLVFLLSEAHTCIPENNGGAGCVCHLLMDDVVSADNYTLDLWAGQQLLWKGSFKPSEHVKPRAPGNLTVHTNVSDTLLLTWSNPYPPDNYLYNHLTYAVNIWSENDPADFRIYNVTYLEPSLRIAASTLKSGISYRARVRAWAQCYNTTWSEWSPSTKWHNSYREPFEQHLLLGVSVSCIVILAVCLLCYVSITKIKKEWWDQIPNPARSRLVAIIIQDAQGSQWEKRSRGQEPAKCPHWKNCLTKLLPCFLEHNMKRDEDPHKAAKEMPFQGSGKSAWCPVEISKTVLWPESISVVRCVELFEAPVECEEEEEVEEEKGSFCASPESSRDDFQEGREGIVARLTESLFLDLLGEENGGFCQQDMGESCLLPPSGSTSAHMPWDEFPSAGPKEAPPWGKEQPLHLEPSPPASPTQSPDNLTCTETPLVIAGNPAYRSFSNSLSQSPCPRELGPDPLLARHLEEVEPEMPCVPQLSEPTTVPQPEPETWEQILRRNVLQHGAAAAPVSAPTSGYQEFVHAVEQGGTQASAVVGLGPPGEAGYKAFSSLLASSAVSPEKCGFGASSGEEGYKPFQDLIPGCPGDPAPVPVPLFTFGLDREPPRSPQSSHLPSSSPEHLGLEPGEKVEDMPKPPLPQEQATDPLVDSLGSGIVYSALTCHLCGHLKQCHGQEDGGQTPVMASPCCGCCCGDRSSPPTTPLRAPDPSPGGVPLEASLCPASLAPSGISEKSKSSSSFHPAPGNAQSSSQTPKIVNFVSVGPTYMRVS

attenuation of IL-4R activity relative to the control constructs: > 10%
B1: anti-IL-4R:anti-CD63 conjugate (streptavidin-conjugated anti-IL-4R antibody combined 1:1 with biotinylated anti-CD63 antibody MEM-259) (bispecific antibody, part only; not given: anti-CD63 MEM-259 antibody, constant regions, V domains shown, part only)
VH: EVQLVESGGGVVQPGRSLRLSCVASGFTFSDYGMHWVRQAPGKGLEWVAVIWYDGSIKYFRDSVKGRFTISRDNSKNTLYLQMNSLRVEDTAHYYCAKESSSWYFYHGLDVWGQGTMVTVSS
VL: EIVMTQSPLSLPVSPGEPASISCRSNQSLLHSNGNNYLAWYLQKPGQSPHLLIYLGSNRASGVPDRFSGSGSGTDFTLKISRVEAGDVGTYFCMQSLQAPPFTFGPGTKVEIKR
modifications: antibody conjugated to streptavidin

Reference: patent publication US20200095338A1
